To fix the notation:
T1: MCU amino-terminal domain (MCU-NTD), MCU 72-189 (human, UniProt Q8NE86-1 72-189)
T1 construct: mitochondrial calcium uniporter (MCU), Homo sapiens, GenBank NP_612366.1, N-terminal domain, residues 72-189; theoretical monomer mass printed as 13.8637 kDa
T1 sequence (looked up): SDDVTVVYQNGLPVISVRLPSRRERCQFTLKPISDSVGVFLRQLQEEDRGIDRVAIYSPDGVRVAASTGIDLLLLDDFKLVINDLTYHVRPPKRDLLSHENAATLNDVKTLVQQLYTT

T2: Fluorescein-MCU-NTD (MCU 72-189 labelled with fluorescein-MTS at Cys97) (human, UniProt Q8NE86-1 72-189, fluorescein (fluorescein-methane thiosulfonate) on Cys97)
T2 construct: mitochondrial calcium uniporter (MCU), Homo sapiens, GenBank NP_612366.1, N-terminal domain, residues 72-189; also called MCU-NTD-fluorescein; source: labelled with fluorescein-MTS
T2 sequence (looked up): T1 sequence (looked up)

T3: MCU-NTD-D147R, MCU 72-189 D147R (human, UniProt Q8NE86-1 72-189, D147R)
T3 construct: mitochondrial calcium uniporter (MCU), Homo sapiens, GenBank NP_612366.1, N-terminal domain, residues 72-189, with D147R
T3 sequence (looked up): T1 sequence (looked up) with D76R

T4: MCU amino-terminal domain (MCU-NTD), MCU residues 72-189 (human, UniProt Q8NE86-1 72-189)
T4 construct: mitochondrial calcium uniporter (MCU), Homo sapiens, GenBank NP_612366.1, residues 72-189 (amino-terminal domain); theoretical monomer mass 13.8637 kDa is printed; also called MCU_(72-189); 15N-MCU-NTD; source: 15N-labelled in M9 minimal medium for NMR
T4 sequence (looked up): T1 sequence (looked up)

B1: MCUb amino-terminal domain (MCUb-NTD), MCUb 58-159 (domain or fragment, human, UniProt Q9NWR8 58-159, looked up)
chain: DEITVIYRHGLPLVTLTLPSRKERCQFVVKPMLSTVGSFLQDLQNEDKGIKTAAIFTADGNMISASTLMDILLMNDFKLVINKIAYDVQCPKREKPSNEHTA
notes: MCU dominant negative beta subunit (MCUb), Homo sapiens, GenBank NP_060388.2, N-terminal domain, residues 58-159; Theoretical monomer mass printed as 12.0098 kDa; a few vector residues probably remain after thrombin cleavage (pET-28a, NheI/XhoI); source: E. coli BL21(DE3) codon plus, purified (Ni-NTA, thrombin, SEC); not shown: 6xHis, N-terminal, cleaved
B2: Fluorescein-MCUb-NTD (MCUb 58-159 labelled with fluorescein-MTS at Cys82 and Cys147) (domain or fragment, human, UniProt Q9NWR8 58-159, looked up)
chain: B1 chain
modifications: fluorescein (fluorescein-methane thiosulfonate) on Cys82 and Cys147
notes: MCU dominant negative beta subunit (MCUb), Homo sapiens, GenBank NP_060388.2, N-terminal domain, residues 58-159; also called MCUb-NTD-fluorescein; source: E. coli BL21(DE3) codon plus, purified (Ni-NTA, thrombin, SEC); labelled with fluorescein-MTS; not shown: 6xHis, N-terminal, cleaved
B3: Red-(NHS)-MCUb-NTD (MCUb 58-159 labelled with Red-NHS on primary amines) (domain or fragment, human, UniProt Q9NWR8 58-159, looked up)
chain: B1 chain
modifications: Red-NHS dye covalently linked to primary amines
notes: MCU dominant negative beta subunit (MCUb), Homo sapiens, GenBank NP_060388.2, N-terminal domain, residues 58-159; also called Red-(NHS)-labeled MCUb-NTD; source: E. coli BL21(DE3) codon plus, purified (Ni-NTA, thrombin, SEC); labelled with the RED-NHS labeling kit (NanoTemper); not shown: 6xHis, N-terminal, cleaved
B4: MCU-NTD-D147R (MCU residues 72-189 with D147R) (domain or fragment, human, UniProt Q8NE86-1 72-189, looked up)
chain: T1 sequence (looked up) with D76R
notes: mitochondrial calcium uniporter (MCU), Homo sapiens, GenBank NP_612366.1, residues 72-189 (amino-terminal domain) with D147R in the MCU regulating acidic patch; also called D147R MCU_(72-189)
B5: Red-(NHS)-labeled MCUb-NTD (MCUb residues 58-159) (domain or fragment, human, UniProt Q9NWR8 58-159, looked up)
chain: B1 chain
modifications: Red-NHS dye covalently linked to primary amines
notes: MCU dominant negative beta subunit (MCUb), Homo sapiens, GenBank NP_060388.2, residues 58-159 (amino-terminal domain); Same chain as m1, with the label; source: E. coli BL21(DE3) codon plus, purified (Ni-NTA, thrombin, SEC), then labelled with the RED-NHS labeling kit (NanoTemper)
B6: MCUb-NTD-fluorescein (MCUb residues 58-159 labelled with fluorescein at Cys82 and Cys147) (domain or fragment, human, UniProt Q9NWR8 58-159, looked up)
chain: B1 chain
modifications: fluorescein (fluorescein-methane thiosulfonate) on Cys82 and Cys147
notes: MCU dominant negative beta subunit (MCUb), Homo sapiens, GenBank NP_060388.2, residues 58-159 (amino-terminal domain); Same chain as m1, with the label; also called fluorescein-MCUb-NTD; MCUb_(58-159) labeled; source: E. coli BL21(DE3) codon plus, purified (Ni-NTA, thrombin, SEC), then labelled with fluorescein-MTS

In assay [1] the target is MCU amino-terminal domain (MCU-NTD), MCU residues 72-189 (human) (UniProt Q8NE86). Briefly: cross-linking; 1 mM BS-3, 90 min, 20 mM HEPES (pH 8.4), 150 mM NaCl, 1 mM DTT, ambient temperature; proteins at 67.5 uM, mix with 67.5 uM or 33.8 uM of each; SDS-PAGE, Coomassie.
In assay [2] the target is MCU amino-terminal domain (MCU-NTD), MCU 72-189 (human) (UniProt Q8NE86). The assay is described as follows: SEC-MALS; 100 uL injected at 3.0 mg mL-1 (mixed sample: final 1.5 mg mL-1 of each component); Superdex 200 Increase 10/300 GL; 20 mM Tris (pH 8.5), 150 mM NaCl, 1 mM DTT, 10 C; with 5 mM CaCl2. A general note: Size exclusion chromatography separates by hydrodynamic size, large species first.

Assay [3] shares this target. The assay is described as follows: SEC-MALS; 100 uL injected at 3.0 mg mL-1 (mixed sample: final 1.5 mg mL-1 of each component); Superdex 200 Increase 10/300 GL; 20 mM Tris (pH 8.5), 150 mM NaCl, 1 mM DTT, 10 C; with 5 mM MgCl2.
For assay [4] the target is unchanged. Briefly: SEC-MALS; 100 uL injected at 3.0 mg mL-1 (mixed sample: 3 mg mL-1 each mixed, final 1.5 mg mL-1 of each component); Superdex 200 Increase 10/300 GL; 20 mM Tris (pH 8.5), 150 mM NaCl, 1 mM DTT, 10 C; no divalent cations.
Assay [5] concerns the target MCUb amino-terminal domain (MCUb-NTD), MCUb 58-159 (human) (UniProt Q9NWR8). The assay is described as follows: SEC-MALS; 100 uL injected at 2.0 mg mL-1; Superdex 200 Increase 10/300 GL; 20 mM Tris (pH 8.5), 150 mM NaCl, 1 mM DTT, 10 C; no divalent cations.
For assay [6] the target is unchanged. The assay is described as follows: SEC-MALS; 100 uL injected at 4.0 mg mL-1; Superdex 200 Increase 10/300 GL; 20 mM Tris (pH 8.5), 150 mM NaCl, 1 mM DTT, 10 C; no divalent cations.
Assay [7] shares this target. The assay is described as follows: SEC-MALS; 100 uL injected at 3.0 mg mL-1 (mixed sample: final 1.5 mg mL-1 of each component); Superdex 200 Increase 10/300 GL; 20 mM Tris (pH 8.5), 150 mM NaCl, 1 mM DTT, 10 C; with 5 mM CaCl2.
Assay [8] shares this target. Briefly: SEC-MALS; 100 uL injected at 3.0 mg mL-1 (mixed sample: final 1.5 mg mL-1 of each component); Superdex 200 Increase 10/300 GL; 20 mM Tris (pH 8.5), 150 mM NaCl, 1 mM DTT, 10 C; with 5 mM MgCl2.
For assay [9], the target named is T1, MCU amino-terminal domain (MCU-NTD), …. The assay is described as follows: SEC-MALS; 100 uL injected at 3.0 mg mL-1 (mixed sample: final 1.5 mg mL-1 of each component); Superdex 200 Increase 10/300 GL; 20 mM Tris (pH 8.5), 150 mM NaCl, 1 mM DTT, 10 C; with 5 mM CaCl2. The note with it: both partners purified.
Assay [10] shares this target. Briefly: SEC-MALS; 100 uL injected at 3.0 mg mL-1 (mixed sample: final 1.5 mg mL-1 of each component); Superdex 200 Increase 10/300 GL; 20 mM Tris (pH 8.5), 150 mM NaCl, 1 mM DTT, 10 C; with 5 mM MgCl2. As to conditions: both partners purified.
Assay [11] has as its target MCUb amino-terminal domain (MCUb-NTD), MCUb 58-159 (human) (UniProt Q9NWR8). The assay is described as follows: SEC-MALS; 100 uL injected at 3.0 mg mL-1 (mixed sample: 3 mg mL-1 each mixed, final 1.5 mg mL-1 of each component); Superdex 200 Increase 10/300 GL; 20 mM Tris (pH 8.5), 150 mM NaCl, 1 mM DTT, 10 C; no divalent cations.
Assay [12] deals with T1, MCU amino-terminal domain (MCU-NTD), …. The description is as above. The note with it: both partners purified.
The target in assay [13] is T2, Fluorescein-MCU-NTD (MCU 72-189 …). The assay is described as follows: other fluorescence titration; steady-state fluorescein fluorescence; ~0.1 uM fluorescein-MCU-NTD titrated with MCUb-NTD; 20 mM Tris (pH 8.5), 150 mM NaCl, 1 mM DTT, 0.0001% (v/v) NP-40, 5 mM CaCl2; 22.5 C; one-site model. The note with it: both partners purified.
The target is the same in assay [14]. Briefly: other fluorescence titration; steady-state fluorescein fluorescence; ~0.1 uM fluorescein-MCU-NTD titrated with MCUb-NTD; 20 mM Tris (pH 8.5), 150 mM NaCl, 1 mM DTT, 0.0001% (v/v) NP-40, 5 mM MgCl2; 22.5 C; one-site model. As to conditions: both partners purified.
Assay [15] concerns the target T3, MCU-NTD-D147R, MCU 72-189 D147R. The assay is described as follows: other fluorescence titration; steady-state fluorescein fluorescence; ~0.1 uM fluorescein-MCUb-NTD titrated with unlabelled MCU-NTD variant; 20 mM Tris (pH 8.5), 150 mM NaCl, 1 mM DTT, 0.0001% (v/v) NP-40; 22.5 C; one-site model. As to conditions: both partners purified.
The target is the same in assay [16]. Briefly: MST; ~0.5 uM Red-(NHS)-MCUb-NTD titrated with unlabelled MCU-NTD variant; 20 mM Tris (pH 8.5), 150 mM NaCl, 1 mM DTT, 0.05% (v/v) NP-40; 22 C; one-site model. As to conditions: both partners purified.
For assay [17], the target named is B5. The assay is described as follows: MST; Red-NHS-labelled MCUb-NTD, increasing MCU-NTD or MCU-NTD-D147R; 20 mM Tris (pH 8.5), 150 mM NaCl, 1 mM DTT, 0.05% (v/v) NP-40, 22°C; one-site model. As to conditions: both partners purified.
Assay [18] addresses B6. Briefly: other fluorescence titration; steady-state fluorescein fluorescence; 0.1 uM MCUb-NTD-fluorescein titrated with MCU-NTD or MCU-NTD-D147R; 20 mM Tris (pH 8.5), 150 mM NaCl, 1 mM DTT, 0.0001% (v/v) NP-40, 22.5°C; one-site model. As to conditions: both partners purified.
Assay [19] addresses T4, MCU amino-terminal domain (MCU-NTD), …. Briefly: MST; Red-NHS-labelled MCUb-NTD, increasing MCU-NTD or MCU-NTD-D147R; 20 mM Tris (pH 8.5), 150 mM NaCl, 1 mM DTT, 0.05% (v/v) NP-40, 22°C; one-site model. The note with it: both partners purified.
Assay [20] has the same target. The assay is described as follows: other fluorescence titration; steady-state fluorescein fluorescence; 0.1 uM MCUb-NTD-fluorescein titrated with MCU-NTD or MCU-NTD-D147R; 20 mM Tris (pH 8.5), 150 mM NaCl, 1 mM DTT, 0.0001% (v/v) NP-40, 22.5°C; one-site model. As to conditions: both partners purified.

Where a chain is given by its changes, count along the chain named. Names may count otherwise.

In general, stoichiometry N refers to the number of molecules, sites or subunits per partner or assembly. Molecule “MCU amino-terminal domain (MCU-NTD), MCU residues 72-189 (from UniProt Q8NE86-1 72-189) (domain or fragment)” showed a stoichiometry N in assay [1] of 2.

In the case of “MCU amino-terminal domain (MCU-NTD), MCU 72-189 (from UniProt Q8NE86-1 72-189) (domain or fragment)”, the results for the stoichiometry N in [2], in assay [3] and in [4] were 0.96, 1.05 and 0.98, respectively.

For orientation: Kd means the free concentration of one partner at which half of the binding sites on the other are occupied at equilibrium, for simple one-to-one binding. Higher therefore signals lower affinity. Consider B1, for which the stoichiometry N was found to be 0.95 in assay [5]; 1.02 in assay [6]; 0.92 in assay [7]; 0.92 in assay [8]; 1.72 in assay [9]; 1.61 in assay [10]. For the same molecule, the stoichiometry N was found to be 0.97 in assay [11] and 1.68 in assay [12]. The Kd in assay [13] was 90 nM; in assay [14], 160 nM.

B2 had a dissociation constant (Kd) in assay [15] of 250 nM.

In [16], B3 displayed a Kd of 11.3 µM.

On to B4, for which the “fold change of KD against MCU-NTD” value in assay [17] and in assay [18] was approximately 2 fold throughout.

Take B5: binding in assay [19] was put at a Kd of 4.65 µM.

As for B6, in [20], binding was characterised by a dissociation constant (Kd) of 133 nM.

For the origin of these results see publication PMC11068563, “The MCU and MCUb amino-terminal domains tightly interact: mechanisms for low conductance assembly of the mitochondrial calcium uniporter complex” (iScience, 2024).
